According to paper PMC10175819:

Tests used:
[1] = target: RHT1-GRAS (truncated DELLA protein carrying only the C-terminal GRAS domain), yeast hybrid fusion (wheat); test: yeast three-hybrid; quantitative alpha-gal Y3H assay; BD and AD fusions with a third protein expressed or not expressed; n = 12
[2] = target: GROWTH-REGULATING FACTOR 4 (GRF4), yeast hybrid fusion (wheat); test: as above

percent reduction of the PLATZ1-DELLA interaction with GRF4 as the third protein [1]	fold stronger interaction than between PLATZ and DELLA [2]	Substance
74%	–	GROWTH-REGULATING FACTOR 4 (GRF4), yeast hybrid fusion (natural protein)
–	> 20 fold	RHT1-GRAS (truncated DELLA protein carrying only the C-terminal GRAS domain), yeast hybrid fusion (domain or fragment)
